The text below walks through data of US20060269550A1.

In test [1] the target is anti-hGhrelin Fab 2291. As to the kind of experiment: competitive ELISA; competitor at 1 µg/ml preincubated with Fab 2291 0.1 µg/ml, OD of Fab bound to BSA-hGhrelin wells. (ELISA stands for enzyme-linked immunosorbent assay.)
Test [2] has as its target anti-hGhrelin Fab 2291. As to the kind of experiment: competitive ELISA; competitor at 5 µg/ml preincubated with Fab 2291 0.1 µg/ml, OD of Fab bound to BSA-hGhrelin wells.
Test [3] concerns the target anti-hGhrelin Fab 2291. As to the kind of experiment: competitive ELISA; competitor at 0.2 µg/ml preincubated with Fab 2291 0.1 µg/ml, OD of Fab bound to BSA-hGhrelin wells.

Where no end group is shown, it is not given here. The star is where a group is joined. Octanoyl = CCCCCCCC(=O)*

Sequence of anti-hGhrelin Fab 2291 (VH, as listed by the source, chain 1 of 2): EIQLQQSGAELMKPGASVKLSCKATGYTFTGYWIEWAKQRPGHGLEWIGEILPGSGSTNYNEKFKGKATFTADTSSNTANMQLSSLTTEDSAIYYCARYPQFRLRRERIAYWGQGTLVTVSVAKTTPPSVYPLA
Sequence of anti-hGhrelin Fab 2291 (VL, as listed by the source, chain 2 of 2): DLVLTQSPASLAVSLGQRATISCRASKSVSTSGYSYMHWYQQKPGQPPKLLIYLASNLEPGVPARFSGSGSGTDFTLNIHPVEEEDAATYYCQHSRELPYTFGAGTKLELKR

Consider GSSFLSPEHQRVQQRKESKKPPAKLQPR [des-acyl-hGhrelin, full-length, non-acylated human ghrelin], for which the Ave. OD (490 nm) was 0.663 OD (490 nm) in test [1], 0.729 OD (490 nm) in test [2] and 0.633 OD (490 nm) in test [3].
In the same order, the values of GSSFLSPEH(Octanoyl)QRVQQRKESKKPPAKLQPR [hGhrelin-His9-acylated] are 0.69 OD (490 nm), 0.702 OD (490 nm) and 0.607 OD (490 nm).
